From publication PMC4496268 come the findings set out here.

The test deals with syntaxin-1, endogenous in cultured mouse neurons (mouse (endogenous in cultured neurons of Syt1 KO mice)) (UniProt O35526). The test can be described thus: co-IP.
Sequence of UniProt O35526 (O35526 whole entry): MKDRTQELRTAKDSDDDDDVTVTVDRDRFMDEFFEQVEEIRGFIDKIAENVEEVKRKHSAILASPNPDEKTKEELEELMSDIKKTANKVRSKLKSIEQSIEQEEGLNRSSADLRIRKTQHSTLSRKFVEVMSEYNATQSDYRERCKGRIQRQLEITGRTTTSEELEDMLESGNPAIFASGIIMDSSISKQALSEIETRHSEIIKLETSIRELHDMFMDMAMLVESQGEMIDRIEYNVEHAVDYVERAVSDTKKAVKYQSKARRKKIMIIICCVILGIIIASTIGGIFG

“Synaptotagmin-1 R322E K325E mutant, expressed in Syt1 KO neurons (from UniProt P21707 1-421) (natural protein)” returned a decrease of co-immunoprecipitated Syt1 against WT Syt1 of 62%.
